Our source for the Kd values is patent publication US20020137087, “2'-fluoropyrimidine anti-calf intestinal phosphatase nucleic acid ligands” (published 2002).

The target of data set [1] is T1, Calf intestinal alkaline phosphatase (CIP) (UniProt P19111 P19111:20-506). Put plainly: streptavidin plate chemiluminescence assay, SHMCK+ buffer, 37 C. As to conditions: tags: Boehringer Mannheim (Indianapolis, Ind.), 10 mg/ml; chain copies: 2. Here is the method: (§1) The affinity of the initial random library and round 8 affinity enriched pool of Example 1 was performed by a plate-based assay using RNA-transcripts biotinylated on the 5′-terminus. Briefly, opaque white 96-well Lumino plates were coated with streptavidin (10 to 20 μg/well). Biotinylated RNA obtained either from the round 8 pool or the random library were added separately to individual wells of a 96-well microtiter plate (approximately 30 fMols RNA per well). After incubating for 1 hour at room temperature, wells were washed three times with […] of SHMCK+buffer. Varying concentrations of CIP, in SHMCK+buffer, were added to the wells and allowed to incubate for 1 hour at 37° C. Wells were washed four times with 200 μl SHMCK+buffer followed by the addition of a 100 μl solution consisting of 0.1 M diethanolamine pH 10, 10% volume/volume Sapphire enhancer solution (Tropix Inc., Bedford, Mass.), […] CSPD (Tropix, Inc.), 1 mM MgCl₂, and 0.02% sodium azide. After a 30 minute incubation, chemiluminescence was measured using a Berthold (Nashua, N.H.) LB 96P luminometer. Luminescence levels were integrated over one second and data were fit to a sigmoidal dose-response curve (variable slope), Y=Bottom+[(Top−Bottom)/1+10^{(Log EC50-X)(Hillslope)}] using GraphPad Prism version 2.01 (GraphPad Software; San Diego, Calif.). Each replicate was considered individually and convergence was obtained when two consecutive iterations varied the sum of squares (relative distance of the points from the curve, 1/Y²) by less than 0.01%.
T1 sequence (P19111 20-506, one chain of several): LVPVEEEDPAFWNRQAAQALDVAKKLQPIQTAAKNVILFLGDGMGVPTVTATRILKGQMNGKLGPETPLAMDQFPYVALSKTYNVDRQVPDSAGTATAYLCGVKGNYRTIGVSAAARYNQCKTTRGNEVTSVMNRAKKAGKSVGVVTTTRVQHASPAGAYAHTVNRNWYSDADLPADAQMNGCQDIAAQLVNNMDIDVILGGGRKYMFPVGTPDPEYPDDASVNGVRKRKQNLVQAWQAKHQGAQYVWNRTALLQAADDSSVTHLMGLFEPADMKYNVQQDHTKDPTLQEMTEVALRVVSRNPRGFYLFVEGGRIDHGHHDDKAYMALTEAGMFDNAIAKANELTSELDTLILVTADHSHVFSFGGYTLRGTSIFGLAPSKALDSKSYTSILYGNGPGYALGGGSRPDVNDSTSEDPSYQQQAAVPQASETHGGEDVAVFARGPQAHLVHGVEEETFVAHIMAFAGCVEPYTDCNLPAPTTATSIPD

Data set [2] addresses T1, Calf intestinal alkaline phosphatase …. Put plainly: streptavidin plate chemiluminescence assay, SHMCK+ buffer pH 7.35, 1 mM CaCl2, 1 mM MgCl2, 37 C. As to conditions: tags: Boehringer Mannheim (Indianapolis, Ind.), 10 mg/ml; chain copies: 2. Here is the method:
as §1, with “Each replicate was considered individually and convergence was obtained when two consecutive iterations varied the sum of squares (relative distance of the points from the curve, 1/Y²) by less than 0.01%.” left out

In general, Kd refers to a measure of binding affinity in units of concentration. Higher therefore signals weaker binding.

B1: DD-172-2-17 (group A) (ssRNA)
RNA: GGGAGACAAGAAUAACGCUCAAACACAAAACAAAAUAACUUGGCCUCGGUGCUCUACGCAAUUCGACAGGAGGCUCACAACAGGC
modifications: all pyrimidines 2'-F
In the case of B1, the Kd in data set [1] worked out at 7.2 nM.

B2: DD-172-2-4 (group B) (ssRNA)
RNA: GGGAGACAAGAAUAAACGCUCAACGCCAGGCCCUUAUCAAGCGCGGAACGCACGACCCGUCUUUCGACAGGAGGCUCACAACAGGC
modifications: all pyrimidines 2'-F
B2 came in with a Kd in data set [2] of 0.13 nM.

B3: DD-172-2-20 (group B) (ssRNA)
RNA: GGGAGACAAGAAUAAACGCUCAACGCCAGGCCCUUAUCAAGCGCGGAACGCAUGACCCGUCUUUCGACAGGAGGCUCACAACAGGC
modifications: all pyrimidines 2'-F
Regarding B3, the Kd in data set [1] came out at 0.26 nM.

B4: DD-172-2-9 (group A) (ssRNA)
RNA: GGGAGACAAGAAUAAACGCUCAACACAAAACAAAAUAACCUUAGCCUCGGUGCUCUACGCAAUUCGACAGGAGGCUCACAACAGGC
modifications: all pyrimidines 2'-F
Regarding B4, in data set [1], the Kd turned out to be 7.8 nM.
